Results as given in US20180117114A1 (INDIANA UNIVERSITY RESEARCH AND TECHNOLOGY COPORATION, published 2018).

Target: CRMP-2 from wild-type mouse brain lysate (mouse, UniProt O08553 1-572)
Assay: SPOTS array of neurofibromin 15-mers overlaid with mouse brain lysate, probed with three CRMP-2 antibodies

Binding result, binds:
RVSHGQIKQIIRILS (15-mer on a SPOTS membrane) [SEQ ID NO: 1, neurofibromin C-terminus peptide RVSHGQIKQIIRILS]
YLQSFGFNGLWRFAG (15-mer on a SPOTS membrane) [SEQ ID NO: 3, neurofibromin C-terminus peptide YLQSFGFNGLWRFAG]
KGYRHPSPAIVARTV (15-mer on a SPOTS membrane) [SEQ ID NO: 2, neurofibromin C-terminus peptide KGYRHPSPAIVARTV]
